This note sets out measurements from US20200325220A1 (INSTITUTE FOR RESEARCH IN BIOMEDICINE, published 2020).

Assay [1] deals with T1, recombinant human GM-CSF (human, UniProt P04141 18-144). Put plainly: SPR, antibody captured on protein A, GM-CSF then collagen. On the technique in general: In SPR one partner is held on a chip, and binding of the other changes the refractive index at the surface.
In assay [2] the target is T2, type I recombinant human collagen (human, UniProt P02452 162-1218; P08123 80-1119). Described as above.
Assay [3] deals with T1, recombinant human GM-CSF. Nature of the assay: SPR, GM-CSF on the chip, antibody then collagen.
The target of assay [4] is T1, recombinant human GM-CSF. Put plainly: SPR, GM-CSF on the chip.
The target of assay [5] is T1, recombinant human GM-CSF. Nature of the assay: ELISA, plate coated with GM-CSF. On the technique in general: An ELISA detects its analyte on a solid surface through an enzyme-linked reagent.
The target in assay [6] is T2, type I recombinant human collagen. Nature of the assay: SPR, GM-CSF on the chip, antibody then collagen.

T1 sequence (P04141 18-144 limits assumed): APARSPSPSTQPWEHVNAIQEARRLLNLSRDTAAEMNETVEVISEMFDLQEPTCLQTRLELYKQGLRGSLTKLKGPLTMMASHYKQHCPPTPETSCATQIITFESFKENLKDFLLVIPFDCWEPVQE
T2 sequence (P02452 162-1218 limits assumed, chain 1 of 2): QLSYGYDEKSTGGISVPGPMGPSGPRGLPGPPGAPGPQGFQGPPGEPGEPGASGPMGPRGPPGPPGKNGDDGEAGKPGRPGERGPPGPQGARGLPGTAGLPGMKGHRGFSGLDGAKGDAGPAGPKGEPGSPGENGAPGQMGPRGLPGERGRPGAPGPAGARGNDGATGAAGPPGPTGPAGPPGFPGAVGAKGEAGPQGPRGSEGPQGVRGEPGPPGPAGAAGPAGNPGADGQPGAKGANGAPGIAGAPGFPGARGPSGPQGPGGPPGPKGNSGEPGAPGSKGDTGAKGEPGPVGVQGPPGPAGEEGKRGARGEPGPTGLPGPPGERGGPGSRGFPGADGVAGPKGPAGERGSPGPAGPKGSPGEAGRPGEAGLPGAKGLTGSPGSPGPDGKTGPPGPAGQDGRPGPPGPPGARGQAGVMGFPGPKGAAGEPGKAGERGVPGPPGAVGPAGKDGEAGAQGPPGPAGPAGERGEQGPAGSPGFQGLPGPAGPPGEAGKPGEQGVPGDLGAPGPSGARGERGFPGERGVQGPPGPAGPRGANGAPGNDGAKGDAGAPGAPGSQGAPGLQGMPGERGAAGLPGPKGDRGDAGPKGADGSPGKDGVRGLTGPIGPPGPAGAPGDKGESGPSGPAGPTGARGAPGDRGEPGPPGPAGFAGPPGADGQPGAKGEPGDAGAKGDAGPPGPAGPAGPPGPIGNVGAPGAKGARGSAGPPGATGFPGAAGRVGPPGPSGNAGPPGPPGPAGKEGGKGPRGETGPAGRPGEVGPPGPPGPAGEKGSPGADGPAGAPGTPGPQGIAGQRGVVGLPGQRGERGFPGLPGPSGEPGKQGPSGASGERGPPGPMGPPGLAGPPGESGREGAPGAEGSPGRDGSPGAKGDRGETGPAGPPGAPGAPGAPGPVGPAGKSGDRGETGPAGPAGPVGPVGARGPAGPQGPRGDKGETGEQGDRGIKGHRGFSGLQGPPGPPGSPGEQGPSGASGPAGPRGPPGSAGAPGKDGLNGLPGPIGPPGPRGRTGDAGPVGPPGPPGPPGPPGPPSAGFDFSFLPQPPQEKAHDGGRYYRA
T2 sequence (P08123 80-1119 limits assumed, chain 2 of 2): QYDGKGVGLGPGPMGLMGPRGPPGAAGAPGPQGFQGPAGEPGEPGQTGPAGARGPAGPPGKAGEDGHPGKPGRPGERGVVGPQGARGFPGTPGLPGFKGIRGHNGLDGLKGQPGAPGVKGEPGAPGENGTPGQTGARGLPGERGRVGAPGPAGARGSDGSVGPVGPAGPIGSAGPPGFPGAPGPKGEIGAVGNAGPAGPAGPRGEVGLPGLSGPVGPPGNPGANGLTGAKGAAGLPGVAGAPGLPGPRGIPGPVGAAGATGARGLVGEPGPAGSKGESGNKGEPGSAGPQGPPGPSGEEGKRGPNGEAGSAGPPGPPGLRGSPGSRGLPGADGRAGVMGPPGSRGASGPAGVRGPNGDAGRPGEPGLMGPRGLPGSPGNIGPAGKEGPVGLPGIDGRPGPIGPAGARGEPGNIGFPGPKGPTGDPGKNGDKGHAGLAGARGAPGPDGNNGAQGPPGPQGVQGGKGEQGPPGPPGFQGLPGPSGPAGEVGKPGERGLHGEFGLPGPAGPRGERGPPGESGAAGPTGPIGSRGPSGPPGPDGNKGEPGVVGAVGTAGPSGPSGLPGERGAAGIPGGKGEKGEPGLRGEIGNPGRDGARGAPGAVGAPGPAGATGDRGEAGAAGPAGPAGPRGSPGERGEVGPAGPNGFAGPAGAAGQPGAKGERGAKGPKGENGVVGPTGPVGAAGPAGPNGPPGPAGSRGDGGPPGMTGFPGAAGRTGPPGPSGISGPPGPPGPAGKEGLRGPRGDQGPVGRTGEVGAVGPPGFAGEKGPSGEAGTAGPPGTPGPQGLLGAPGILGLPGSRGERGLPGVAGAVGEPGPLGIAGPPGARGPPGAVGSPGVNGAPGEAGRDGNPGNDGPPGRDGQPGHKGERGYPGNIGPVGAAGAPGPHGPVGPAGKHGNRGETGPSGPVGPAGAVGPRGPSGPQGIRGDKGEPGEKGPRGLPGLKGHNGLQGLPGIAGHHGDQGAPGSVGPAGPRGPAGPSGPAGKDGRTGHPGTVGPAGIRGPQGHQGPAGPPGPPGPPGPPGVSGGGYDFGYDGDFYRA

B1: TT107 (antibody, V domains shown)
VH: QVQLIQSGGGLVKPGGSLRLSCAASGFTFSDYYMSWIRQVPGKGLEWISVISATTGYTDYADSVKGRFTISRDNAKNSVFLQMNSLRVDDMAVYYCAREVLGTAWFDYWGQGTLVTISS
VL: EIVLTQSPGTLSLSPGERATLSCRASQSVTSNYLAWYQQKPGQAPRLLIYGVSRRATGIPDRFSGSGSGTDFALTISRLEPEDFAVYYCQQYRSSPRTFGPGTKVEFKR
notes: also called TT-specific monoclonal antibody
With B1, the binding result was “no binding (tested: GM-CSF 50 nM)” in assay [1] and “no binding (tested: collagen 50 nM)” in assay [2].

B2: MGD^UCA (antibody, human IgG1, kappa)
heavy: not shown
light: AIRMTQSPSSFSASTGDRVTITCRASQGISSYLAWYQQKPGKAPKLLIYAASTLQSGVPSRFSGSGSGTDFTLTISCLQSEDFATYYCQQYYSYPPDFGQGTRLEIKRTVAAPSVFIFPPSDEQLKSGTASVVCLLNNFYPREAKVQWKVDNALQSGNSQESVTEQDSKDSTYSLSSTLTLSKADYEKHKVYACEVTHQGLSSPVTKSFNRGEC
notes: also called collagen-specific MGD^UCA antibody
For B2, the binding result in assay [3] was “no binding (tested: antibody 10 nM)”.

B3: C4 (bispecific antibody, human IgG1, kappa)
heavy: not shown
light: EIVLTQSPGTLSLSPGETAILSCRASQSVSSSLLAWYQQKPGQAPRLLIYGASNRATGIRGRFSGSGSGTDFTLTISRLEPEDFVLYYCQHYGSRVTFGQGTKLEIKRTVAAPSVFIFPPSDEQLKSGTASVVCLLNNFYPREAKVQWKVDNALQSGNSQESVTEQDSKDSTYSLSSTLTLSKADYEKHKVYACEVTHQGLSSPVTKSFNRGEC
notes: also called construct C4; bispecific construct C4
B3: the binding result in assay [4] was “binds”.

B4: C5b (antibody, human IgG1, kappa)
heavy: not shown
light: EIVLTQSPGTLSLSPGETAILSCRASQSVSSSLLAWYQQKPGQAPRLLIYGASNRATGIRGRFSGSGSGTDFTLTISRLEPEDFVLYYCQHYGSRVTFGQGTKLEIKRTVAAPSVFIFPPSDEQLKSGTASVVCLLNNFYPREAKVQWKVDNALQSGNSQESVTEQDSKDSTYSLSSTLTLSKADYEKHKVYACEVTHQGLSSPVTKSFNRGEC
notes: also called construct C5b
Turning to B4, in assay [5], the binding result was “binds”.

B5: C5 (antibody, human IgG1, kappa)
heavy: not shown
light: EIVLTQSPGTLSLSPGETAILSCRASQSVSSSLLAWYQQKPGQAPRLLIYGASNRATGIRGRFSGSGSGTDFTLTISRLEPEDFVLYYCQHYGSRVTFGQGTKLEIKRTVAAPSVFIFPPSDEQLKSGTASVVCLLNNFYPREAKVQWKVDNALQSGNSQESVTEQDSKDSTYSLSSTLTLSKADYEKHKVYACEVTHQGLSSPVTKSFNRGEC
notes: also called construct C5
B5: the binding result in assay [4] is reported as “binds”.

B6: GCE536 (antibody, human IgG1, kappa)
heavy: not shown
light: EIVLTQSPGTLSLSPGETAILSCRASQSVSSSLLAWYQQKPGQAPRLLIYGASNRATGIRGRFSGSGSGTDFTLTISRLEPEDFVLYYCQHYGSRVTFGQGTKLEIKRTVAAPSVFIFPPSDEQLKSGTASVVCLLNNFYPREAKVQWKVDNALQSGNSQESVTEQDSKDSTYSLSSTLTLSKADYEKHKVYACEVTHQGLSSPVTKSFNRGEC
notes: also called anti-GM-CSF antibody; scaffold antibody
As to B6, the binding result was “binds” in assay [4] and “no binding (tested: collagen 50 nM)” in assay [6].

B7: C6b (antibody, human IgG1, kappa)
heavy: not shown
light: EIVLTQSPGTLSLSPGETAILSCRASQSVSSSLLAWYQQKPGQAPRLLIYGASNRATGIRGRFSGSGSGTDFTLTISRLEPEDFVLYYCQHYGSRVTFGQGTKLEIKRTVAAPSVFIFPPSDEQLKSGTASVVCLLNNFYPREAKVQWKVDNALQSGNSQESVTEQDSKDSTYSLSSTLTLSKADYEKHKVYACEVTHQGLSSPVTKSFNRGEC
notes: also called construct C6b
As to B7, the binding result in assay [5] is “binds”.

B8: FI174 (antibody, V domains shown)
VH: QVQLVQSGAEVRKPGSSVKVSCKTSGGIIRKYALSWVRQAPGQGLEWMGGIIAIFGTTNYAQKFQGRVTINADESTSTVYLELSSLTSEDTAIYYCAGSATYYESRFDYWGQGTLVTVSS
VL: EIVLTQSPGTLSLSPGARATLSCRASQSVSSSSLAWYQQKPGQAPRLLIYDASSRATGIPDRFSGSGSGTDFTLTISRLEPEDFAVYYCHQYGDSRKTFGQGTKVEIKR
notes: also called F1174; FI74
On to B8, for which the binding result in assay [3] is “no binding (tested: antibody 10 nM)”.
